# Results reported in patent US20240392002A1 (EXELIXIS, published 2024).
# Biological target: ROR1 on tumor cell lines (human, UniProt Q01973 30-937)
# Assay: cell-based or functional assay
# Sequence of ROR1 on tumor cell lines (Q01973 30-937 limits assumed): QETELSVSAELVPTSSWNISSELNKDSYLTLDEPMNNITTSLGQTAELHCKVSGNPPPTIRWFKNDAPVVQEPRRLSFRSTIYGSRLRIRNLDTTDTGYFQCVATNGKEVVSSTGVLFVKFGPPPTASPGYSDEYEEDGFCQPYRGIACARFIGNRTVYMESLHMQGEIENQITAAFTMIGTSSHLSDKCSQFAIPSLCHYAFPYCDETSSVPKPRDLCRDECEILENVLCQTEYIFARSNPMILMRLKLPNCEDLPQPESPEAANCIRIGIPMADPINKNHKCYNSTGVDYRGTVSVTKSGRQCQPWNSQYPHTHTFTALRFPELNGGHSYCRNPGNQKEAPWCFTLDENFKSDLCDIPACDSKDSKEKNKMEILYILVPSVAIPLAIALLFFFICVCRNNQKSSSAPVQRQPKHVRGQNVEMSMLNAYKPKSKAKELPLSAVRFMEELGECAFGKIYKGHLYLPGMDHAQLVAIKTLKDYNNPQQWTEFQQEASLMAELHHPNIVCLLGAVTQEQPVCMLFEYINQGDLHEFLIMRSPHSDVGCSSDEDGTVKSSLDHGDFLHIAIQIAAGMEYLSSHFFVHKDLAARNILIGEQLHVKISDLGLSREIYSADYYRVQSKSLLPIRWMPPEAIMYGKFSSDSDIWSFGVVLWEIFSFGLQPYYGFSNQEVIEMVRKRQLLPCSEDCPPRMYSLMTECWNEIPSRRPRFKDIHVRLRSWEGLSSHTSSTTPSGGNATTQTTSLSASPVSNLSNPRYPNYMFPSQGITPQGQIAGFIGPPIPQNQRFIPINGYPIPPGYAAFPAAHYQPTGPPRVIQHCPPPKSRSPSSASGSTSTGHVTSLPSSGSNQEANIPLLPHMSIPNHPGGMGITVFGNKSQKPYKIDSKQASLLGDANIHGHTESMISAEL
row,Binder,"EC50, CD8+ T cell mediated killing of MDA-MB-231 (LDH) [nM]"
1,I2A-10 BC1 1×2 B-body (I2A-10 x SP34-89) (bispecific antibody) chain 1: not shown chain 2: EVQLVESGGGLVQPGGSLRLSCAASGFTFSSYFIHWVRQAPGKGLEWVAGIYPSDGYTSYADSVKGRFTISADTSKNTAYLQMNSLRAEDTAVYYCARYYSGMDYWGQGTLVTVSSASPREPQVYTDPPSRDELTKNQVSLTCLVKGFYPSDIAVEWESNGQPENNYKTTPPVLDSDGSFFLYSKLTVDKSRWQQGNVFSCSVMHEALHNHYTQKSLSLSGEC chain 3: DIQMTQSPSSLSASVGDRVTITCRASQSVSSAVAWYQQKPGKAPKLLIYSASSLYSGVPSRFSGSRSGTDFTLTISSLQPEDFATYYCQQYYYYPGTFGQGTKVEIKRTPREPQVYTLPPSRDELTKNQVSLKCLVKGFYPSDIAVEWESNGQPENNYKTTPPVLDSDGSFFLYSKLTVDKSRWQQGNVFSCSVMHEALHNHYTQKSLSLSKSCTASSGGSSSGQAVVTQEPSLTVSPGGTVTLTCRSSTGAVTTSNYANWVQQKPGQAPRGLIGGTNKRAPWTPARFSGSLLGGKAALTITGAQAEDEADYYCALWYSNLWVFGGGTKLTVLGRTVAAPSVFIFPPSDEQLKSGTASVVCLLNNFYPREAKVQWKVDNALQSGNSQESVTEQDSKDSTYSLSSTLTLSKADYEKHKVYACEVTHQGLSSPVTKSFNRGECDKTHTCPPCPAPEAAGGPSVFLFPPKPKDTLMISRTPEVTCVVVDVSHEDPEVKFNWYVDGVEVHNAKTKPREEQYNSTYRVVSVLTVLHQDWLNGKEYKCKVSNKALKAPIEKTISKAKGQPREPQVCTLPPSREEMTKNQVSLSCAVKGFYPSDIAVEWESNGQPENNYKTTPPVLDSDGSFFLVSKLTVDKSRWQQGNVFSCSVMHEALHNHYTQKSLSLSPGK chain 4: EVQLVESGGGLVQPGGSLRLSCAASGFTFNTYAMNWVRQAPGKGLEWVARIRSKYNNYATYYADSVKGRFSISRDDSKNTAYLQMNSLRAEDTAVYYCVRHGNFGNSYVSWFAYWGQGTLVTVSSASTKGPSVFPLAPSSKSTSGGTAALGCLVKDYFPEPVTVSWNSGALTSGVHTFPAVLQSSGLYSLSSVVTVPSSSLGTQTYICNVNHKPSNTKVDKKVEPPKSC,0.013
2,"I2A-27 BC1 1×2 B-body (I2A-27 x SP34-89), Example 20 (bispecific antibody) chain 1: not shown chain 2: EVQLVESGGGLVQPGGSLRLSCAASGFTFKGYYIHWVRQAPGKGLEWVAAIYPYGGSTDYADSVKGRFTISADTSKNTAYLQMNSLRAEDTAVYYCARVYIYGVFDYWGQGTLVTVSSASPREPQVYTDPPSRDELTKNQVSLTCLVKGFYPSDIAVEWESNGQPENNYKTTPPVLDSDGSFFLYSKLTVDKSRWQQGNVFSCSVMHEALHNHYTQKSLSLSGEC chain 3: DIQMTQSPSSLSASVGDRVTITCRASQSVSSAVAWYQQKPGKAPKLLIYSASSLYSGVPSRFSGSRSGTDFTLTISSLQPEDFATYYCQQYYSSPRTFGQGTKVEIKRTPREPQVYTLPPSRDELTKNQVSLKCLVKGFYPSDIAVEWESNGQPENNYKTTPPVLDSDGSFFLYSKLTVDKSRWQQGNVFSCSVMHEALHNHYTQKSLSLSKSCTASSGGSSSGQAVVTQEPSLTVSPGGTVTLTCRSSTGAVTTSNYANWVQQKPGQAPRGLIGGTNKRAPWTPARFSGSLLGGKAALTITGAQAEDEADYYCALWYSNLWVFGGGTKLTVLGRTVAAPSVFIFPPSDEQLKSGTASVVCLLNNFYPREAKVQWKVDNALQSGNSQESVTEQDSKDSTYSLSSTLTLSKADYEKHKVYACEVTHQGLSSPVTKSFNRGECDKTHTCPPCPAPEAAGGPSVFLFPPKPKDTLMISRTPEVTCVVVDVSHEDPEVKFNWYVDGVEVHNAKTKPREEQYNSTYRVVSVLTVLHQDWLNGKEYKCKVSNKALKAPIEKTISKAKGQPREPQVCTLPPSREEMTKNQVSLSCAVKGFYPSDIAVEWESNGQPENNYKTTPPVLDSDGSFFLVSKLTVDKSRWQQGNVFSCSVMHEALHNHYTQKSLSLSPGK chain 4: EVQLVESGGGLVQPGGSLRLSCAASGFTFNTYAMNWVRQAPGKGLEWVARIRSKYNNYATYYADSVKGRFSISRDDSKNTAYLQMNSLRAEDTAVYYCVRHGNFGNSYVSWFAYWGQGTLVTVSSASTKGPSVFPLAPSSKSTSGGTAALGCLVKDYFPEPVTVSWNSGALTSGVHTFPAVLQSSGLYSLSSVVTVPSSSLGTQTYICNVNHKPSNTKVDKKVEPPKSC",0.0082
